According to the RNAGym collection of RNA variant scans (doi:10.1073/pnas.2313332121):

B1: TPR t1 (parent)
chain: GACCAAUCUGCCCUCAGAGCUCGAGAACAUCUUCGGAUGCAGAGGAGGCAGGCUUCGGUGGCGCGAUAGCGCCAACGUCCUCAACCUCCAAUGCAUCCCACCACAUGAUGAUGCCUGAAGAGCCUUGGUUUUUUG

Variants of: B1
Assay: polymerase ribozyme fitness, log enrichment relative to wild type (log ratio); higher = more active; in vitro selection for triplet polymerase activity
In short: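 Each subunit of a heterodimeric triplet polymerase ribozyme was mutagenized into a library by PCR, transcribed, and subjected to one round of in vitro selection, run in triplicate. Libraries were annealed with a biotinylated primer, the partner subunit and triplets, incubated frozen at −7 °C, and extended constructs were gel-excised, captured on streptavidin beads and recovered by RT-PCR. Input and output libraries were sequenced on Illumina, keeping genotypes with ≥10 input reads and ≥1 read per output. Fitness is log base 2 of genotype enrichment divided by wild-type enrichment, from inverse-variance-weighted replicate averages.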

Row | Variant | polymerase ribozyme fitness (log ratio)
1 | GACCAAUCUGCCCUCAGAGUUCGAGAACAUCUUCGGAUGCAGAGGAGGCAGGCUUCGGUGGCGCGAUAGCGCCAACGUCCUCAACCUCCAAUGCAUCCCACCACAUGAUGAUGCCUUAUGAGCCUUGGUUUUUUG [C20U G117U A119U] | -4.12
2 | GACCAAUCUGCCCUCAGAGUUCGAGAACAUCUUCGGAUGCAGAGGAGGCAGGCUUCGGUGGCGCGAUAGCGCCAACGUCCUCAACCUCCAAUACAUCCCACCACAUGAUGAUGCCUGAAGAGCCUUGGUUUUUUG [C20U G93A] | -1.32
3 | GACCAAUCUGCCCUCAGAGUUCGAGAACAUCUGCGGAUGCAGAGGAGGCAGGCUUCGGUGGCGCGAUAGCGCCAACGUCCUCAACCUCCAAUGCAUCCCACCACAUGAUGAUGCCUGAAGAGUCUUGGUUUUUUG [C20U U33G C123U] | -6.12
4 | GACCAAUCUGCCCUCAGAGUUCGAGAACAUCUUCGGAUGCAGAGGAGGCAGGCUUCGGUGGCUCGAUAGCGCCAACGUCCUCAACCUCCAAUGCAUCCCACCACAUGAUGAUGCCUGGAGAGCCUUGGUUUAUUG [C20U G63U A118G U132A] | -2.9
5 | GACCAAUCUGCCCUCAGAGUUCGAGAACAUCUUCGGAUGCAGAGGAGGCAGGCUUCGGUGGCGCGAUAACGCCAACGUCCUCAACCUCCAAUGCAUCCCACCACAUGAUGAUGCCUGAAUAGCCUUGGUUUUUUG [C20U G69A G120U] | -4.11
6 | GACCAAUCUGCCCUCAGAGUUCGAGAACAUCUUCGGAUGCAGAGGAGGCAGGCUUCGGUGCCGCGAUAGCGCCAACGUCCUCAACCUCCAAUGCAUCCCACCACAUGAUGAUGCCUGAAGAGCCUUGGUUUUUUG [C20U G61C] | -2.87
7 | GACCAAUCUGCCCUCAGAGUUCGAGAACAUCUUCGGAUGCAGAGGAGGCAGGCUUCGGUGACGCGAUAGCGCCAACGUCCUCAACCUCCAAUGCAUCCCACCACAUGAUGAUGCCUGAAGAGCCUUGGUUUUUUG [C20U G61A] | -1.13
8 | GACCAAUCUGCCCUCAGAGUUCGAGAACAUCUUCGGAUGCAGAGGAGGCAGGCUUCGGUGGCGCGAUAGCGCCAACGUCCUCAACCUCCAAAGCAUCCCACCACAUGAUGAUGCCUGAAGAGCCUUGGUUUUUUG [C20U U92A] | -4.08
9 | GACCAAUCUGCCCUCAGAGUUCGAGAACAUCUUCGGAUGCAGAGGAGGCAGGCUUCGGUCGCGCGAUAGCGCCAACGUCCUCAACCUCCAAUGCAUCCUACCACAUGAUGAUGCCUGAAGAGCCUUGGUUUUUUG [C20U G60C C99U] | -4.59
10 | GACCAAUCUGCCCUCAGAGUUCGAGAACAUCGUCGGAUGCAGAGGAGGCAGGCUUCGGUGGCGCGAUAGCGCGAACGUCCUCAACCUCCAAUGCAUUCCACCACAUGAUGAUGCCUGAAGAGUCUUGGUUUUUUG [C20U U32G C73G C97U C123U] | -5.73
11 | GACCAAUCUGCCCUCAGAGUUCGAGAACAUCUUCGGAUGCAGAGGAGGCAGGCUUCGGUUGCGCGAUAGCGUCAACGUCCUCAACCUCCAAUGUAUCCCACCACAUGAUGAUGCCUGAAGAGCCUUGGUUUUUUG [C20U G60U C72U C94U] | -1.4
12 | GACCAAUCUGCCCUCAGAGUUCGAGAACAUCUUCGGAUGCAGAGGAGGCAGGCUUCGGUGGCGCGAUAGCGCCAACAUCCUCAUCCUCCAAUGCAUCCCACCACAUGAUGAGGCCUGAAGAGCCUUGGUUUUUUG [C20U G77A A84U U112G] | -2.88
13 | GACCAAUCUGCCCUCAGAGUUCGAGAACAUCUUCGGAUGCAGAGGAGGCAGGCUUCCGUGGCGCGAUAGCGCCAACGUCCUCAACCUCCAAUGCAUCCCACCAAAUGAUGAUGCCUGAAGAGCCUUGGUUUUUUG [C20U G57C C104A] | -2.45
14 | GACCAAUCUGCCCUCAGAGUUCGAGAACAUCUGCGGAUGCAGAGGAGGCAGGCUUCGGUGGCGCGAUAGCGCCAACGUCCUCAACCUCCAAUGCAUCCCACCACAUGAUGAUGCCUGAAGAGCCUUGGUUUUUUG [C20U U33G] | -6.55
15 | GACCAAUCUGCCCUCAGAGUUCGAGAACAUCUUCGGAUGCAGAGGAGGCAGGCUUCGGUGGCCCGAUAGCGCCAACGUCCUCACCCUCCAAUGCAUCCCACCACUUGAUGAUGCCUGAAGAGCCUUGGUUUUUUG [C20U G63C A84C A105U] | -4.52
16 | GACCAAUCUGCCCUCAGAGUUCGAGAACAUCUUCGGAUGCAGAGGAGGCAGGCUUCGGUGGCGCGAUAGCGCCAACGUCCUCAACCUCCAAUGCAUCCCACCACAUGAUGAUUCCUGAAGAGCCUUGGUUUUUUG [C20U G113U] | -0.99
17 | GACCAAUCUGCCCUCAGAGUUCGAGAACAUCUUCGGAUGCAGAGGAGGCAGGCUUCGGUGGCGCGAUAGCGCCAACGUCCUCAACCUCCAAUGCAUCCCACCACAUGAUGAUGCCUAAAGAGCCUUGGUUUUUUG [C20U G117A] | -2.72
18 | GACCAAUCUGCCCUCAGAGUUCGAGAACAUCUUCGGAUGCAGAGGAGGCAGGCUUCGGUUGCGCGAUAGCGCCAACGACCUCAACCUCCAAUGCAUCCCACCACAUGAUGAUCCCUGAAGAGCCUUGGUUUUUUG [C20U G60U U78A G113C] | -2.3
19 | GACCAAUCUGCCCUCAGAGUUCGAGAACAUCUUCGGAUGCAGAGGAGGCAGGCUUCGGUGGCGCGAUAGCGCCAACGUCCUCAACCUCCAAUGCAUCCCACCACAUGAUGAUGCCUGAAGAACCUUGGUUUUUUG [C20U G122A] | -2.04
20 | GACCAAUCUGCCCUCAGAGUUCGAGAACAUCUUCGGAUGCAGAGGAGGCAGGCUUCGGUGCCGCGAUAGCGCCAACGUCCUCAACCUCCAAUCCAUCCCACCACAUGAUGAUGCCUGAAGAGCCUUGGUUUUUUG [C20U G61C G93C] | -3.53
21 | GACCAAUCUGCCCUCAGAGUUCGAGAACAUCUUCGGAUGCAGAGGAGGCAGGCUUCGGUGGCGCGAUAGCGCCAACGUCCACAACCUCCAAUGCAUCCCACCACAUGAUGAUGCCUGAAGAGCCUUGGUUUUUUG [C20U U81A] | -1.98

Row | Variant | polymerase ribozyme fitness (log ratio)
22 | GACCAAUCUGCCCUCAGAGUUCGAGAACAUCUUCGGAUGCAGAGGAGGCAGGCUUCGGUGGCGCGAUAGCGCCAACGUCCUCAACCUCCAAUGCAGCCCACCACAUGAUGAUGCCUGAAGAGGCUUGGAUUUUUG [C20U U96G C123G U129A] | -1.64
23 | GACCAAUCUGCCCUCAGAGUUCGAGAACAUCUUCGGAUGCAGAGGAGGCAGGCUUCGGUGGCGCGAUAGCGCCAACGCCCUCAACCUCCAAUGCAUCCCACCACAUGAUGAUGCCUGAAGAGCCUUGGUUUUUUG [C20U U78C] | -1.11
24 | GACCAAUCUGCCCUCAGAGUUCGAGAACAUCUUCGGAUGCAGAGGAGGCAGGCUUCGGAGGCGCGAUAGCGCCAAGGUCCUCAACCUCCAAUGCAUCCCACCACAUGAUGAUGCCUGAAGAGCCUUGGUUUUUUG [C20U U59A C76G] | -2.85
25 | GACCAAUCUGCCCUCAGAGUUCGAGAACAUCUUCGGAUGCAGAGGAGGCAGGCUUCGGUCGCGCGAUAGCGCCAACGUCCUCAACCUCCAAUGCAUCCCACCACAUGAUGAUGCCUGAAGAGCCUUGGUUUUUUG [C20U G60C] | -1.73
26 | GACCAAUCUGCCCUCAGAGUUCGAGAACAUCUUCGGAUGCAGAGGAGGCAGGCUUCGGUGGCGCGAUAGCGCCAACGACCUCAAUCUCCAAUGCAUCCCACCACAUGAUGAUGCCUGAAGAGCCUUGGUUUUUUG [C20U U78A C85U] | -2.54
27 | GACCAAUCUGCCCUCAGAGUUCGAGAACAUCUUCGGAUGCAGAGGAGGCAGGCAUCGGUGGCGCGAUAGCGCCAACGUCCUCAACCUCCAAUGCAUCCCACCACAUGAUGAUGCCUGAAGAGCCUUGGUUUUUUG [C20U U54A] | -0.906
28 | GACCAAUCUGCCCUCAGAGUUCGAGAACAUCUUCGGAUGCAGAGGAGGCAGGCUUCGGUGCCGCGAUAGCGCCAACGUCCUAAACCUCCAAUGCAUCCCACCACAUGAUGAUGCCUGAAGAGCGUUGGUUUUUUG [C20U G61C C82A C124G] | -1.38
29 | GACCAAUCUGCCCUCAGAGUUCGAGAACAUCUUCGGAUGCAGAGGAGGCAGGCUUCGGUGGCCCGAUAGCGCCAACGUCCUCAACCUCCAAUGCAUCCCACCACAUGAUGAUGCCUGAAGAGCCUUGGUUUUUUG [C20U G63C] | -2.1
30 | GACCAAUCUGCCCUCAGAGUUCGAGAACAUCUUCGGAUGCAGAGGAGGCAGGCUUCGGUGGCACGAUAGCGCCAACGUCCUCAACCUCCAAUGCAUCCCACCACAUGAUGAUGCCUGAAGAGCCUUGGUUUUUUG [C20U G63A] | -1.73
31 | GACCAAUCUGCCCUCAGAGUUCGAGAACAUCUUCGGAUGCAGAGGAGGCAGGCUUCGGUGGCGCGAUAGCGCCAACGUCCUCAACCUCCAAUGCAUCCCACCACAUGAUGAUUCCUGAAUAGCCUUGGUUUUUUG [C20U G113U G120U] | -3.12
32 | GACCAAUCUGCCCUCAGAGUUCGAGAACAUCUUCGGAUGCAGAGGAGGCAGGCUUCGGUUGCGCGAUAGCGCCAACGUCCUCAACCUCCAAUGCAUCCCACCACAUGAUAAUGCCUGAAGAGCCUUGGUUUUUUG [C20U G60U G110A] | -3.8
33 | GACCAAUCUGCCCUCAGAGUUCGAGAACAUCUUCGGAUGCAGAGGAGGCAGGCUUCGGUGGCGCGAUAGCUCCAACGUCCUCAACCUCCAAUGCAUCCCACCACAUGAUGAUGCCUGAAGAGCCUUGGUUUUUUG [C20U G71U] | -1.29
34 | GACCAAUCUGCCCUCAGAGUUCGAGAACAUCUUCGGAUGCAGAGGAGGCAGGCUUCGGUGGCGCGAUAGCGCCAACGUCCUCAACCUCCAAUGCAUCCCACCACAUGAUCAUGCCUGAAGAGCCUUGGUUUUUUG [C20U G110C] | -4.31
35 | GACCAAUCUGCCCUCAGAGUUCGAGAACAUCUUCGGAUGCAGAGGAGGCAGGCUGCGGUGGCGCGAUAUCGCCAACGUCCUCAACCUCCAAUGCAUCCAACCACAUGAUGAUGCCUGAAGAGCCUUGGUUUUUUG [C20U U55G G69U C99A] | -3.12
36 | GACCAAUCUGCCCUCAGAGUUCGAGAACAUCUUCGGAUGCAGAGGAGGCAGGCUUCGGUGGCGCGAUAGCGCCAACGUCCUCAACCUCCAAUGCAUCCCACCACAUGAUGAUGCCGGAAGAGCCUUGGUUUUUUG [C20U U116G] | -4.59
37 | GACCAAUCUGCCCUCAGAGUUCGAGAACAUCUUCGGAUGCAGAGGAGGCAGGCUUCGGUGGCGCGAUAGCGCCAACGUCCUCAACCUCCAAUGCAUCCCACCACAUGAAGAUGCCUGAAGAGCCUUGGUUUUUUG [C20U U109A] | -4.34
38 | GACCAAUCUGCCCUCAGAGUUCGAGAACAUCUUCGGAUGCAGAGGAGGCAGGCUUCGGUGACGCGAUAGCGCCAACGUCCUCAACCUCCAAUGCAUCACACCACAUGAUGAUGCCUGAAGAGCCUUGGUUUUUUG [C20U G61A C98A] | -5.48
39 | GACCAAUCUGCCCUCAGAGUUCGAGAACAUCUUCGGAUGCAGAGGAGGCAGGCUUCGGUGGCGCGAUAGCGCCAACGUCCUCAACCUCCAAUGCAUCCCACCACAUGAUGAAGCCUGAAAAGCCUUGGUUUUUUG [C20U U112A G120A] | -0.897
40 | GACCAAUCUGCCCUCAGAGUGCGAGAACAUCUUCGGAUGCAGAGGAGGAAGGCUUCGGUGGCGCGAUAGCGCCAACGUCCUCAACCUCCAAUGCAUCUCACCACAUGAUGAUGCCUGAAGAGCCUUGGUUUUUUG [C20U U21G C49A C98U] | -4.2
41 | GACCAAUCUGCCCUCAGAGUUCGAGAACAUCUUCGGAUGCAGAGGAGGCAGGCUUCGGUGGCGCGAUAGCGCCAACGUCCUCAACCUCCAAUACAUCCCAGCACAUGAUGAUCCCUGAAGAGCCUUGGUUUUUUG [C20U G93A C101G G113C] | -4.09
42 | GACCAAUCUGCCCUCAGAGUUCGAGAACAUCUUCGGAUGCAGAGGAGGCAGGCUUCGGUGGCGCGAUAGCGCCAACGUCCUCAACCUCCAAUGCAUCCCACCACAUGAUGAUGCCUGAAUAGCCUUGGUUUUUUG [C20U G120U] | -1.57
